Holding throughout (format): cell-based, Saccharomyces cerevisiae
Experiment [1] relates to Z11-hexadecenoic acid. Briefly: in vivo bioconversion of Z11-hexadecenoic acid into Z11-hexadecenol by alcohol-forming reductases in S. cerevisiae. The text has this: S. cerevisiae W303 (MATA ura3-1 trp1-1 leu2-3_112 his3-11_15 ade2-1 can1-100) and BY4742 (MATa POX1::kanMX his3Δ1 leu2Δ0 lys2Δ0 ura3Δ0) were used as expression hosts. DNA sequences which encode fatty alcohol reductase variants were redesigned to optimize expression in S. cerevisiae (SEQ ID NOs: 1-3). Generated synthons (Genscript) were cloned into pESC-URA vector using BamHI-XhoI sites to facilitate protein expression utilizing the Gal1 promoter. The resulting plasmid constructs were used to transform W303, and positive transformants were selected on CM agar medium (with 2% glucose, and lacking uracil) (Teknova). To assess functional expression, two positive transformation clones that have been patched on CM agar medium (with 2% glucose, and lacking uracil) were used to seed CM liquid medium using a 24 deep-well plate format. […]
The lipids were extracted according to a modified procedure of Hagström et al. (2012) (Hagström, A. K., Liénard, M. A., Groot, A. T., Hedenström, E. & Löfstedt, C. Semi-Selective Fatty Acyl Reductases from Four Heliothine Moths Influence the Specific Pheromone Composition. PLoS One 7: e37230 (2012)). […] The trimethylsilyl-esters, which were generated by this method were subsequently analyzed by GC-MS analysis. […] A Z11-hexadecenol calibration curve shown in FIG. 9 was used to quantify the Z11-hexadecenol produced from yeasts. […]

Experiment [2] has as its system S. cerevisiae ΔOLE1. The experiment is described as follows: ΔOLE1 growth complementation assay without UFA. The text has this:
S. cerevisiae ΔOLE1 (MATA OLE1::LEU2 ura3-52 his4) was used as an expression host. A synthetic expression cassette termed pOLE1 (FIG. 10, SEQ ID NO: 4) which comprises the OLE1 promoter region (SEQ ID NOs: 5 and 6), nucleotides encoding for 27 N-terminal amino acids of the OLE1 leader sequence (SEQ ID NO: 7), and a VPS13 terminator sequence (SEQ ID NO: 8) was created, and cloned into pESC-URA vector in between SacI and EcoRI sites. To test the functionality of the pOLE1 cassette, Dasher GFP synthon was inserted in between SpeI and NotI sites to create pOLE1-GFP plasmid. Competent ΔOLE1 was transformed with pOLE1-GFP, and plated on CM-Ura glucose agar plate (Teknova) containing UFA (20 mm CM-URA glucose agar plate was coated with 100 μL CM-Ura glucose medium containing 1% tergitol, and 3 μL palmitoleic acid). […] Validation of ΔOLE1 complementation was performed by restoring OLE1 activity. Specifically, native S. cerevisiae OLE1 synthon was inserted into pOLE1 cassette devoid of the leader sequence to create pOLE1-OLE1 plasmid. After transformation of ΔOLE1, and selection on CM-Ura glucose agar containing UFA, single colonies were patched onto YPD and CM-Ura glucose without UFA. After incubation at 30° C. for 5 days, growth was observed (FIG. 11A-FIG. 11E). As expected, Dasher GFP expression could not complement ΔOLE1 growth without UFA (FIG. 11A-FIG. 11E). DNA sequences which encode for desaturase variants were synthesized (to include nucleotide changes which remove restriction sites used for cloning purposes), and cloned into pOLE1 using SpeI-NotI sites (Genscript, SEQ ID NOs: 9-13). Complementation assay of ΔOLE1 with insect desaturases were performed in the same way as with OLE1 desaturase.

For experiment [3], the system named is palmitic acid. The experiment is described as follows: in vivo bioconversion of palmitic acid into (Z)-11-hexadecenoic acid in S. cerevisiae ΔOLE1. Particulars: ΔOLE1, ~96 h in minimal medium containing palmitic acid. The protocol:
To assess functional expression, two positive transformation clones that had been patched on CM-Ura glucose agar medium containing UFA were inoculated in 1.5 mL CM-Ura glucose liquid medium containing palmitic acid (in ethanol) at a final concentration of 300 mg/L, and with 6.7 g/L of YNB. For (z)-11-hexadecenoic isomer confirmation, a 20 mL culture was generated. Bioconversion assay proceeded for 96 h at 28° C. prior to GC-MS analysis.
Total lipid composition as well as the (Z)-11-hexadecenoic acid quantification was based on modified procedures by Moss et al. (1982) (Moss, C. W., Shinoda, T. & Samuels, J. W. Determination of cellular fatty acid compositions of various yeasts by gas-liquid chromatography. J. Clin. Microbiol. 16: 1073-1079 (1982)) and Yousuf et al (2010) (Yousuf, A., Sannino, F., Addorisio, V. & Pirozzi, D. Microbial Conversion of Olive Oil Mill Wastewaters into Lipids Suitable for Biodiesel Production. J. Agric. Food Chem. 58: 8630-8635 (2010)). The pelleted cells (in 1.5 mL plastic tubes), usually about 10 mg to 80 mg, were resuspended in methanol containing 5% (w/w) of sodium hydroxide. […]
The regioselectivity of biologically produced (Z)-11-hexadecenoic acid was determined by comparing the fragmentation patterns of the dimethyl disulfide (DMDS) derivative with the DMDS derivative of an authentic standard. […]

The results in this text go back to patent US11866760B2, “Microorganisms for the production of insect pheromones and related compounds” (Provivi, Inc., priority 2017, dated 2024).

Values joined by “and” are separate entries in the source; they are usually repeats but may differ in a detail not shown here. Equal entries are not always repeated.

B1: H. armigera reductase: Helicoverpa armigera alcohol-forming fatty acyl-CoA reductase, SEQ ID NO: 41 (protein)
chain: MVVLTSKETKPSVAEFYAGKSVFITGGTGFLGKVFIEKLLYSCPDIENIYMLIREKKGLSVSERIKQFLDDPLFTRLKDKRPADLEKIVLIPGDITAPDLGINSENEKMLIEKVSVIIHSAATVKFNEPLPTAWKINVEGTRMMLALSRRMKRIEVFIHISTAYTNTNREVVDEILYPAPADIDQVHQYVKDGISEEDTEKILNGRPNTYTFTKALTEHLVAENQAYVPTIIVRPSVVAAIKDEPLKGWLGNWFGATGLTVFTAKGLNRVIYGHSSYIVDLIPVDYVANLVIAAGAKSSKSTELKVYNCCSSSCNPVTIGTLMSMFADDAIKQKSYAMPLPGWYIFTKYKWLVLLLTFLFQVIPAYVTDLSRHLIGKSPRYIKLQSLVNQTRSSIDFFTNHSWVMKADRVRELYASLSPADKYLFPCDPTDINWTHYIQDYCWGVRHFLEKKSYE
modifications: Helicoverpa armigera alcohol forming reductase (HaFAR)
In the case of B1, the “activity toward Z11-hexadecenoic acid among the reductases tested” value in experiment [1] (S. cerevisiae) is “most active”. For the same molecule, the Z11-hexadecenol production in experiment [1] (W303A, within 48 h of protein induction, 300 mg/L Z11-hexadecenoic acid) was ≤ 70 μM and ≤ 16 mg/L.

B2: S. cerevisiae OLE1: native S. cerevisiae palmitoyl:CoA/stearoyl:CoA (Z)-9-desaturase, positive control (protein, UniProt P21147 1-510, looked up)
Acyl-CoA desaturase 1: MPTSGTTIELIDDQFPKDDSASSGIVDEVDLTEANILATGLNKKAPRIVNGFGSLMGSKEMVSVEFDKKGNEKKSNLDRLLEKDNQEKEEAKTKIHISEQPWTLNNWHQHLNWLNMVLVCGMPMIGWYFALSGKVPLHLNVFLFSVFYYAVGGVSITAGYHRLWSHRSYSAHWPLRLFYAIFGCASVEGSAKWWGHSHRIHHRYTDTLRDPYDARRGLWYSHMGWMLLKPNPKYKARADITDMTDDWTIRFQHRHYILLMLLTAFVIPTLICGYFFNDYMGGLIYAGFIRVFVIQQATFCINSLAHYIGTQPFDDRRTPRDNWITAIVTFGEGYHNFHHEFPTDYRNAIKWYQYDPTKVIIYLTSLVGLAYDLKKFSQNAIEEALIQQEQKKINKKKAKINWGPVLTDLPMWDKQTFLAKSKENKGLVIISGIVHDVSGYISEHPGGETLIKTALGKDATKAFSGGVYRHSNAAQNVLADMRVAVIKESKNSAIRMASKRGEIYETGKFF
For B2, the “rescue of ΔOLE1 growth without UFA” value in experiment [2] (minimal medium (CM-Ura glucose) agar plate) is recorded as “rescued ΔOLE1 growth without exogenous UFA”. Also, the “rescue of ΔOLE1 growth without UFA” value in experiment [2] (rich medium (YPD) agar plate) is recorded as “highest level of growth”. Further, in experiment [3], the “(Z)-9-hexadecenoic acid in C16-fatty acid” value is roughly 31.4% and the “hexadecanoic acid in C16-fatty acid” value was “approximately 68.6%”.
